Patent US20240150440A1 (LUMEN BIOSCIENCE, published 2024)

Legend:
[1] = target: T1, SARS-CoV-2 Alpha Variant RBD (SARS-CoV-2 Alpha variant); experiment: ELISA, RBD coated
T1 construct: domain: RBD; coated on ELISA plates

[2] = target: T2, SARS-CoV-2 Beta Variant RBD (SARS-CoV-2 Beta variant); experiment: ELISA, RBD coated
T2 construct: domain: RBD; coated on ELISA plates

[3] = target: T3, SARS-CoV-2 Gamma Variant RBD (SARS-CoV-2 Gamma variant); experiment: ELISA, RBD coated
T3 construct: domain: RBD; coated on ELISA plates

[4] = target: T4, SARS-CoV-2 Delta Variant RBD (SARS-CoV-2 Delta variant); experiment: ELISA, RBD coated
T4 construct: domain: RBD; coated on ELISA plates

[5] = target: T5, SARS-CoV-2 spike protein on pseudotyped lentivirus (Wuhan Reference Pseudovirus) (SARS-CoV-2, UniProt P0DTC2 14-1273); experiment: cell-based or functional assay
[6] = target: T5, SARS-CoV-2 spike protein on pseudotyped …; experiment: cell-based or functional assay; remark: listed apart in the source

B1: PP931 MBP-5HVZ-R5a-F5-H6 (VHH)
VHH: QVQLVESGGGLVQPGGSLRLSCAASGYHASILAMHWVRQAPGKEREWVASMTWSDMTQYSDSVKGRFTISRDNAKNTVYLQMNSLKPEDTAVYYCAATYVTRDRPWTHWGQGTQVTVSS
notes: Form: Dimer
EC50 [1]: 2.07 nM
EC50 [2]: 134 nM
EC50 [3]: 110 nM
EC50 [4]: 127 nM
infectivity % under 10 ug/mL VHH treatment [5]: 57.5%

B2: PP915 MBP-5HVZ-S3b-A7-H6 (VHH)
VHH: QVQLVESGGGLVQPGGSLRLSCAASGSIASINAIHWVRQAPGKQREEVAAITSGGSTGYADSVKGRFTISRDNAKNTVYLQMNSLKPEDTAVYYCAAQPGQSYAVWGQGTQVTVSS
notes: Form: Dimer
EC50 [1]: 0.52 nM
EC50 [4]: 37.8 nM
infectivity % under 10 ug/mL VHH treatment [5]: 90.5%

B3: PP911 MBP-5HVZ-S2b-F7-H6 (VHH)
VHH: QVQLVESGGGLVQPGGSLRLSCAASGSTLSNNAMHWFRQAPGKAREFVAAIGSSDSTDYKDSVKGRFTISRDNAKNTVYLQMNSLKPEDTAVYYCTALLDSGPGEYNYWGQGTQVTVSS
notes: Form: Dimer
EC50 [1]: 2.19 nM
EC50 [2]: 545 nM
EC50 [3]: 317 nM
infectivity % under 10 ug/mL VHH treatment [5]: 74.9%

B4: PP907 MBP-5HVZ-S1b-E11-H6 (VHH)
VHH: QVQLVESGGGLVQPGGSLRLSCAASGSYASIASMHWFRQAPGKEREFVAGVTSGGSTNYGDSVKGRFTISRDNAKNTVYLQMNSLKPEDTAVYYCNALAGANYESQWEEYNYWGQGTQVTVSS
notes: Form: Dimer
EC50 [1]: 3.7 nM
EC50 [2]: 263 nM
EC50 [3]: 120 nM
infectivity % under 10 ug/mL VHH treatment [5]: 76.3%

B5: PP909 MBP-5HVZ-S2b-A7-H6 (VHH)
VHH: QVQLVESGGGLVQPGGSLRLSCAASGSSDSWNALHWFRQAPGKEREFVAGISSAGSGYYADSVKGRFTISRDNAKNTVYLQMNSLKPEDTAVYYCNGYEHTTGYDYWGQGTQVTVSS
notes: Form: Dimer
EC50 [1]: 0.44 nM
EC50 [2]: 8.1 nM
EC50 [3]: 5.37 nM
EC50 [4]: 81.4 nM

B6: PP1160 MPB-scTRP-PAPA-R5a-C5-H6 (VHH)
VHH: QVQLVESGGGLVQPGGSLRLSCAASGDIFSINALHWFRQAPGKQREEVAAITSGGSTGYADSVKGRFTISRDNAKNTVYLQMNSLKPEDTAVYYCAAQQARGGLDSDYWGQGTQVTVSS
notes: Form: Trimer
Pseudovirus neutralization IC50 [6]: 2.41 nM
infectivity % under 10 ug/mL VHH treatment [5]: 4.22%

B7: PP1095 MBP-5HVZ-PAPA-RN-2-H6 (VHH)
VHH: QVQLVESGGGLVQPGGSLRLSCAASGSYFSKNAVHWYRQAPGKGREWVAALTNSGSGNYKDSVKGRFTISRDNAKNTVYLQMNSLKPEDTAVYYCTANISESTGQGYDYWGQGTQVTVSS
EC50 [1]: 1.18 nM
EC50 [2]: 193 nM
EC50 [3]: 90.9 nM
EC50 [4]: 16.9 nM
infectivity % under 10 ug/mL VHH treatment [5]: 76.8%

B8: PP1115 MBP-5HVZ-PAPA-RN-31-H6 (VHH)
VHH: QVQLVESGGGLVQPGGSLRLSCAASGSTGSDYAMHWFRQAPGKDREWVAGISSYGSDSYGDSVKGRFTISRDNAKNTVYLQMNSLKPEDTAVYYCAALQASAGAGYYYDYWGQGTQVTVSS
notes: Form: Dimer
EC50 [1]: 6.74 nM
EC50 [2]: 857 nM
EC50 [3]: 162 nM
infectivity % under 10 ug/mL VHH treatment [5]: 86.9%

B9: PP1111 MBP-5HVZ-PAPA-RN-27-H6 (VHH)
VHH: QVQLVESGGGLVQPGGSLRLSCAASGPQFSSNAVSWFRQAPGKEREWVAGITSGGSTDYADSVKGRFTISRDNAKNTVYLQMNSLKPEDTAVYYCTAPSVSDADRRTRDYWGQGTQVTVSS
notes: Form: Dimer
EC50 [1]: 0.31 nM
EC50 [2]: 1.57 nM
EC50 [3]: 1.6 nM
EC50 [4]: 231 nM
infectivity % under 10 ug/mL VHH treatment [5]: 68.3%

B10: PP933 MBP-5HVZ-R5e-C1-H6 (VHH)
VHH: QVQLVESGGGLVQPGGSLRLSCAASGSIPYVQAMSWFRQAPGKGREGVASIGWGGGTYYADSVKGRFTISRDNAKNTVYLQMNSLKPEDTAVYYCAAKFRENFSFYDYWGQGTQVTVSS
notes: Form: Dimer
EC50 [1]: 9.74 nM
EC50 [2]: 10.2 nM
EC50 [3]: 9.73 nM
EC50 [4]: 8.87 nM

B11: PP906 MBP-5HVZ-S1b-E7-H6 (VHH)
VHH: QVQLVESGGGLVQPGGSLRLSCAASGGEFSDNGLHWFRQAPGKQREFVATASSDGSTQYRDSVKGRFTISRDNAKNTVYLQMNSLKPEDTAVYYCTALLMSSAGEYDVWGQGTQVTVSS
notes: Form: Dimer
EC50 [1]: 1.97 nM
EC50 [2]: 988 nM
EC50 [3]: 378 nM
EC50 [4]: 205 nM
infectivity % under 10 ug/mL VHH treatment [5]: 69.6%

B12: PP1096 MBP-5HVZ-PAPA-RN-3-H6 (VHH)
VHH: QVQLVESGGGLVQPGGSLRLSCAASGFEFTYRAVHWFRQAPGKGREWVAGVVSGGSTYYADSVKGRFTISRDNAKNTVYLQMNSLKPEDTAVYYCNAGPQAEEDTYDYWGQGTQVTVSS
EC50 [1]: 1.92 nM
EC50 [2]: 63.2 nM
EC50 [3]: 28.4 nM
infectivity % under 10 ug/mL VHH treatment [5]: 86.5%

B13: PP930 MBP-5HVZ-R2b-D4-H6 (VHH)
VHH: QVQLVESGGGLVQPGGSLRLSCAASGSYASIASMHWFRQAPGKQREFVAGLTSGGSRIYGDSVKGRFTISRDNAKNTVYLQMNSLKPEDTAVYYCTALILHYAGMYDYWGQGTQVTVSS
notes: Form: Dimer
EC50 [1]: 3.9 nM
EC50 [2]: 13 nM
EC50 [3]: 10.2 nM
EC50 [4]: 21.1 nM
infectivity % under 10 ug/mL VHH treatment [5]: 35.6%

B14: PP912 MBP-5HVZ-S2b-G8-H6 (VHH)
VHH: QVQLVESGGGLVQPGGSLRLSCAASGSIQSYEAMHWFRQAPGKAREWVAVITWGDSTQYGDSVKGRFTISRDNAKNTVYLQMNSLKPEDTAVYYCAADVRQGYSSWGQGTQVTVSS
notes: Form: Dimer
EC50 [1]: 1.96 nM
EC50 [2]: 365 nM
EC50 [3]: 177 nM
EC50 [4]: 622 nM
infectivity % under 10 ug/mL VHH treatment [5]: 73.2%

B15: PP1098 MBP-5HVZ-PAPA-RN-9-H6 (VHH)
VHH: QVQLVESGGGLVQPGGSLRLSCAASGLRFAMTEMAWFRQAPGKQREFVALITEGGSGSYGDSVKGRFTISRDNAKNTVYLQMNSLKPEDTAVYYCAALHYTEGANTESATTFDYWGQGTQVTVSS
EC50 [1]: 0.97 nM
EC50 [2]: 24.8 nM
EC50 [3]: 11.2 nM
infectivity % under 10 ug/mL VHH treatment [5]: 58.3%

B16: PP1114 MBP-5HVZ-PAPA-RN-30-H6 (VHH)
VHH: QVQLVESGGGLVQPGGSLRLSCAASGIPASYLNMHWFRQAPGKQREWVAGAGGTNSNYYQDSVKGRFTISRDNAKNTVYLQMNSLKPEDTAVYYCAALDGAESYDYVYPVWGQGTQVTVSS
notes: Form: Dimer
EC50 [1]: 1.64 nM
EC50 [2]: 18.9 nM
EC50 [3]: 6.12 nM
infectivity % under 10 ug/mL VHH treatment [5]: 76.3%

B17: PP1110 MBP-5HVZ-PAPA-RN-26-H6 (VHH)
VHH: QVQLVESGGGLVQPGGSLRLSCAASGSISSINSMHWYRQAPGKEREWVAAVSSYGSDYYADSVKGRFTISRDNAKNTVYLQMNSLKPEDTAVYYCAARTVTGFTYGDYWGQGTQVTVSS
notes: Form: Dimer
EC50 [1]: 4.98 nM
EC50 [2]: 17 nM
EC50 [3]: 8.98 nM
EC50 [4]: 407 nM
infectivity % under 10 ug/mL VHH treatment [5]: 57.9%

B18: PP1099 MBP-5HVZ-PAPA-RN-12-H6 (VHH)
VHH: QVQLVESGGGLVQPGGSLRLSCAASGSSFEGNAVHWFRQAPGKNREFVATITTSTSYYYADSVKGRFTISRDNAKNTVYLQMNSLKPEDTAVYYCAARLKDRGPQSEYDYWGQGTQVTVSS
notes: Form: Dimer
EC50 [1]: 4.95 nM
EC50 [2]: 194 nM
EC50 [3]: 160 nM
infectivity % under 10 ug/mL VHH treatment [5]: 70.6%

B19: PP1176 MBP-5HVZ-PAPA-R2a-F3-H6 (VHH)
VHH: QVQLVESGGGLVQPGGSLRLSCAASGSITSINWMHWFRQAPGKDREGVASISQTGRGSYADSVKGRFTISRDNAKNTVYLQMNSLKPEDTAVYYCAAASRTGTPYNYWGQGTQVTVSS
notes: Form: Dimer
EC50 [1]: 0.27 nM
EC50 [4]: 2.67 nM
infectivity % under 10 ug/mL VHH treatment [5]: 58.4%

B20: PP1109 MBP-5HVZ-PAPA-RN-25-H6 (VHH)
VHH: QVQLVESGGGLVQPGGSLRLSCAASGEDYSYNAAHWFRQAPGKEREWVAAINSGGGTYYADSVKGRFTISRDNAKNTVYLQMNSLKPEDTAVYYCAYLGALDRDGYDAWGQGTQVTVSS
notes: Form: Dimer
EC50 [1]: 1.12 nM
EC50 [2]: 17.1 nM
EC50 [3]: 11 nM
EC50 [4]: 115 nM
infectivity % under 10 ug/mL VHH treatment [5]: 88%

B21: PP1108 MBP-5HVZ-PAPA-RN-23-H6 (VHH)
VHH: QVQLVESGGGLVQPGGSLRLSCAASGGEKSISAAHWYRQAPGKEREFVAAITAASTTSYADSVKGRFTISRDNAKNTVYLQMNSLKPEDTAVYYCTAVLYDSYDYWGQGTQVTVSS
notes: Form: Dimer
EC50 [1]: 1.89 nM
EC50 [2]: 121 nM
EC50 [3]: 57.1 nM
infectivity % under 10 ug/mL VHH treatment [5]: 93.1%

B22: PP927 MBP-5HVZ-R1i-C8-H6 (VHH)
VHH: QVQLVESGGGLVQPGGSLRLSCAASGRQFGAWRMHWYRQAPGKQREWVAGITSGTSGNYADSVKGRFTISRDNAKNTVYLQMNSLKPEDTAVYYCAATSHTTYHAEYWGQGTQVTVSS
notes: Form: Dimer
EC50 [1]: 2.22 nM
EC50 [4]: 94.2 nM
infectivity % under 10 ug/mL VHH treatment [5]: 45.4%

B23: PP1112 MBP-5HVZ-PAPA-RN-28-H6 (VHH)
VHH: QVQLVESGGGLVQPGGSLRLSCAASGSQFSHNLMSWFRQAPGKQREFVAAITSFGSTGYADSVKGRFTISRDNAKNTVYLQMNSLKPEDTAVYYCAALSSEDTSHYPRNYWGQGTQVTVSS
notes: Form: Dimer
EC50 [1]: 1.76 nM
EC50 [2]: 4.77 nM
EC50 [3]: 3.01 nM
EC50 [4]: 15.1 nM
infectivity % under 10 ug/mL VHH treatment [5]: 70.4%

B24: PP1094 MBP-5HVZ-PAPA-RN-1-H6 (VHH)
VHH: QVQLVESGGGLVQPGGSLRLSCAASGYIFEGGPTAWFRQAPGKGREFVAAITTSGETSYAYSVKGRFTISRDNAKNTVYLQMNSLKPEDTAVYYCNATDRDETGYDYWGQGTQVTVSS
EC50 [1]: 0.89 nM
EC50 [2]: 315 nM
EC50 [3]: 160 nM
EC50 [4]: 49.9 nM
infectivity % under 10 ug/mL VHH treatment [5]: 83.4%
